± gives the half width of the 95% confidence interval.
How the values were obtained:
[1] = folding stability dG unfold from trypsin proteolysis; higher = more stable
How it was run: (§1)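 Designed mini-proteins (under 80 residues, no cysteine) in a PA-tagged cDNA display construct were digested with trypsin and chymotrypsin. Each protease was used at 11 concentrations (threefold dilutions) plus a no-protease condition, followed by sequencing. K50 was inferred by Bayesian fitting of sequencing counts, and unfolding free energy was derived against a sequence-predicted unfolded-state K50 and a shared folded-state K50, per protease or combined. Only designs with AlphaFold2 dimer inter-PAE above 15 were kept.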

[2] = folding stability dG unfold from chymotrypsin proteolysis; higher = more stable
How it was run: as §1

[3] = folding stability dG unfold (combined trypsin and chymotrypsin); higher = more stable
How it was run: as §1

| Sequence | folding stability dG unfold [1] [kcal/mol] | folding stability dG unfold [2] [kcal/mol] | folding stability dG unfold [3] [kcal/mol] |
| --- | --- | --- | --- |
| SAGGSAKVVEIELVEVRRNANGERIVRVRIKLPNGEERTIEMSEEELKELLAKLPPNVEIVAIEEVSAGGSA [r15_339_TrROS_Hall] | 1.42 ± 0.077 | 1.76 ± 0.043 | 1.56 ± 0.15 |
| SAGGSAMKLTFTDSKGRTIEITVEKKYLPNGEPYLIITIKYPDTDEEIVITMPTSNIDEILEKLLNSAGGSA [r15_92_JUSTAS] | 4.06 ± 0.32 | 4.28 ± 0.11 | 4.27 ± 0.24 |
| SAGGSAGGSAGEPKLILVEVEGYPDPESNLVYVEFPNGDIATFAVDSAAPDQPVLVLVNPSAGGSAGGSAGG [r11_621_TrMRF] | 0.378 ± 0.044 | -0.0185 ± 0.065 | 0.28 ± 0.045 |
| SAGYEWVRELAKKKGFKDIKIEDVQPQRPPDGMEYMHVRIEVQHPGKKREVDIWMRPDNIEEALEQALKSAG [r5_549_TrROS] | 0.402 ± 0.096 | 0.993 ± 0.08 | 0.766 ± 0.11 |
| SAGGSAGGSMEVDIEVETLETEVSFLPGDLIKVKKLVKITLPNGEVLEEETEEIIPKSEIGKLSAGGSAGGS [r12_1028_JUSTAS] | 0.808 ± 0.078 | -0.00695 ± 0.12 | 0.419 ± 0.24 |
| SAGGSAGGSDPSATISFSFPLPDGSTININITITDEGSGPRIEIDITVTDANNNTAPAKFTIDSAGGSAGGS [r12_33_TrMRF] | 1.58 ± 0.11 | 1.4 ± 0.14 | 1.65 ± 0.11 |
| SMLVLRLPDNRLAVLEYDPETKRLRVLVVDPESGRLTVAEIHPETGEITVDEYTLLPNGEPLPHRFELPLSA [r9_1073_TrMRF] | 2.84 ± 0.099 | 2.54 ± 0.048 | 2.73 ± 0.058 |
| SAGGSAGGNMIPVKARMKWPDGKEFPFEIMVQYQPDGQMQIEIQNPGDGETVTFPNMKLIDVEISAGGSAGG [r6_255_TrROS] | -0.656 ± 0.26 | 0.828 ± 0.021 | 0.469 ± 0.06 |
| SAGGSAMNPKLEALPEVEITEEKTEEYKTAENKKLLVKEYKSNAEPGKTYKVIYDPETGKVLSVEESAGGSA [r15_66_JUSTAS] | 0.0954 ± 0.059 | 1.1 ± 0.11 | 0.737 ± 0.1 |
| SAGGGSMEVVKEEVSEEVEVLPNGTVLTTKTITYKTPDGKEYTETVLERVDPVTGKREVIEKKTYPSSAGGS [r16_50_JUSTAS] | 1.59 ± 0.12 | 2.64 ± 0.045 | 2.4 ± 0.1 |
| SAGGSPKAREERFEKTLPDGTVVPVTLTRLPDGTVRVETTTYTYNSPEPVASTSTTTLPEAEVAAALSAGGS [r16_470_JUSTAS] | 0.631 ± 0.099 | 0.684 ± 0.11 | 0.686 ± 0.086 |
| SAGGMYKVKIYFEDTKEEIEIEASAEEVLEAIKNGDLDALKKLFPGAKIVKIEVEKVEPEPEEEEEEESAGG [r13_629_TrROS_Hall] | 3.33 ± 0.27 | 3.48 ± 0.23 | 3.44 ± 0.29 |
| SAGMTIIKIEFPDGSKATVDPTNPSTMTITDPNGNTTVLNLTGVEEAKKQLIETLKKETGLPVKKVEVESAG [r5_119_JUSTAS] | 0.493 ± 0.045 | 1.38 ± 0.049 | 1.14 ± 0.088 |
| SMIKIKVVEKKDGKYKIKIENKKTGKTFEFEFDTKEEAEEAEKNPGKTIYLSEEALKKLKKENITKVEKVSA [r9_390_TrROS_Hall] | 0.442 ± 0.065 | 1.24 ± 0.087 | 1.11 ± 0.15 |
| SAGGSAGGSAKPNWVIIEMTIQIPEGDPEEIKEIMEPFGWEITGVDNNYIKVSILMPPGAKISAGGSAGGSA [r18_168_TrROS] | 1.26 ± 0.14 | 1.14 ± 0.043 | 1.26 ± 0.25 |
| SAGGMFLRIEPEDGSRFEIPLNDPSLPLEVVVGLVSKYMDGPVKLKLTLVLPEEEVEYEYEIPLEKKSAGGS [r16_216_TrMRF] | 1.24 ± 0.028 | 2.37 ± 0.061 | 1.98 ± 0.098 |
| SAMERVEIVVKVKVRPDMSLEELKERVERELRRLLEERGIELPEGAKITVEIVEETEDYVVVKVTIELPSAG [r14_735_TrROS_Hall] | 4.53 ± 0.24 | 2.91 ± 0.14 | 4.4 ± 0.32 |
| SAGGSAGGSAGMPVKVVLVKWKGGGLEPEGGEEREVEIGPEELEKLVKEAEKEGYEVYPASAGGSAGGSAGG [r17_18_TrMRF] | 0.165 ± 0.11 | -0.126 ± 0.35 | 0.0684 ± 0.36 |
| SAGGSAGGSAGGSMSTVFVSTLTLPDPSGLSTVLTTTVEIDPEGNAHPVTSTEEVSAAASAGGSAGGSAGGS [r4_80_JUSTAS] | 0.716 ± 0.022 | 0.33 ± 0.089 | 0.652 ± 0.079 |
| SAGGSAGGSPVPVKVVVKLPSSDKTIELTLYPPDVSPDSVVTVDLGGPAIDVKLLPGDVLELSPSAGGSAGG [r6_461_JUSTAS] | 0.114 ± 0.034 | 0.524 ± 0.039 | 0.323 ± 0.097 |
| SAGGTVTLTLELTVKVKRKDGKTETKKVTLTITVEVKEGETVYTPDGKKIKPGKSAEELAKELLKKLSAGGS [r16_440_TrROS_Hall] | 1.17 ± 0.089 | 1.28 ± 0.12 | 1.27 ± 0.32 |

Reference: the supplement of paper PMC12764529
